± gives the standard deviation of the averaged measurements.
B1: library; numbered along this chain (parent)
chain: MNIQIGELAKRTACPVVTIRFYEQEGLLPPPGRSRGNFRLYGEEHVERLQFIRHCRSLDMPLSDVRTLLSYRKRPDQDCGEVNMLLDEHIRQVESRIGALLELKHHLVELREACSGARPAQSCGILQGLSDCVCDTRGTTAHPSD

Columns and labels:
[1] = variants of: B1; experiment: sfGFP reporter fluorescence (15 h) (µM FITC); higher = higher leak; conditions: library round: Round 0; ligand: none
Summary of the method: (§1)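 Linear PbrR templates were made by PCR, normalized to 5 nM with an Echo, and expressed in BL21 Star (DE3) PANOx-SP extract with the pPbrR-sfGFP reporter plasmid and 30 μg/mL GamS. Echo-assembled 1 μL reactions held 1 µM lead chloride, 30 µM zinc acetate or no metal and were incubated 15 hr at 30 °C. Endpoint sfGFP fluorescence was read on a Synergy Neo2 and expressed as µM FITC using standard curves. Up to three biological replicates were run.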

[2] = variants of: B1; experiment: sfGFP reporter fluorescence (15 h) (µM FITC); higher = stronger transcriptional activation; conditions: library round: Round 0
Summary of the method: as §1

| Variant | sfGFP reporter fluorescence [1] | sfGFP reporter fluorescence ([2]; ligand: 1 µM Pb) | sfGFP reporter fluorescence ([2]; ligand: 30 µM Zn) |
| --- | --- | --- | --- |
| S63A | 0.0607 ± 0.00078 | 0.0733 ± 0.0026 | 0.725 ± 0.037 |
| P61N K104V L107C G128M | 0.584 ± 0.064 | 2.12 ± 0.083 | 3.41 ± 0.56 |
| P61N K104V L107C G128I | 0.289 ± 0.0057 | 1.306 ± 0.0026 | 2.66 ± 0.067 |
| M60L P61N L107C | 1.39 ± 0.39 | 2.42 ± 0.21 | 5.07 ± 0.26 |
| L58Y | 0.0784 ± 0.0062 | 0.229 ± 0.011 | 0.606 ± 0.036 |
| L58K | 0.0629 ± 0.0013 | 0.06908 ± 0.00026 | 0.0735 ± 0.0034 |
| L58M | 0.0583 | 0.0581 ± 0.00078 | 0.0748 ± 0.0015 |
| L58P | 0.0594 ± 0.0015 | 0.0601 ± 0.001 | 0.0605 ± 0.001 |
| L58T | 0.0588 ± 0.0018 | 0.05864 ± 0.00052 | 0.05644 ± 0.00052 |
| L58W | 0.0629 ± 0.0034 | 0.0685 ± 0.0026 | 0.076 ± 0.0023 |
| L58R | 0.06139 ± 0.00026 | 0.0651 ± 0.0029 | 0.0662 ± 0.00078 |
| L58S | 0.05717 ± 0.00052 | 0.0586 | 0.0563 ± 0.0013 |
| L58Q | 0.0596 ± 0.0018 | 0.05901 ± 0.00052 | 0.0711 ± 0.0021 |
| L58V | 0.0583 ± 0.001 | 0.0568 ± 0.0021 | 0.061 ± 0.0018 |
| L58N | 0.05644 ± 0.00052 | 0.05791 ± 0.00052 | 0.0548 ± 0.0023 |
| D64K K104V | 0.4361 ± 0.0031 | 1.44 ± 0.053 | 4.041 ± 0.031 |
| M60L D64K K104V | 2.02 ± 0.17 | 4.2 ± 0.4 | 4.63 ± 0.11 |
| V65A | 0.0629 ± 0.0013 | 0.0678 ± 0.0052 | 0.153 ± 0.036 |
| D64L | 2.28 ± 0.17 | 3.29 ± 0.26 | 4.32 ± 0.14 |
| D64Q | 0.0579 ± 0.001 | 0.0808 ± 0.0029 | 0.781 ± 0.044 |
| D64V | 0.177 ± 0.0098 | 0.5072 ± 0.0036 | 3.52 ± 0.1 |
| D64H | 0.0682 ± 0.001 | 0.12 ± 0.0054 | 1.81 ± 0.088 |

| Variant | sfGFP reporter fluorescence [1] | sfGFP reporter fluorescence ([2]; ligand: 1 µM Pb) | sfGFP reporter fluorescence ([2]; ligand: 30 µM Zn) |
| --- | --- | --- | --- |
| D64K | 0.154 ± 0.049 | 0.382 ± 0.023 | 3.306 ± 0.03 |
| D64P | 0.0607 ± 0.00078 | 0.076 ± 0.00078 | 0.162 ± 0.0067 |
| D64G | 0.06322 ± 0.00026 | 0.121 ± 0.0054 | 1.26 ± 0.049 |
| D64M | 2.97 ± 0.48 | 3.46 ± 0.68 | 4.15 ± 0.31 |
| D64A | 0.0874 ± 0.0065 | 0.158 ± 0.049 | 2.22 ± 0.24 |
| D64R | 0.064 ± 0.0039 | 0.112 ± 0.0049 | 1.4 ± 0.036 |
| D64N | 0.06652 ± 0.00026 | 0.137 ± 0.006 | 1.64 ± 0.084 |
| D64Y | 0.61 ± 0.017 | 1.75 ± 0.51 | 3.81 ± 0.17 |
| D64E | 0.0581 ± 0.0018 | 0.061 ± 0.0013 | 0.1552 ± 0.00078 |
| D64W | 0.0815 ± 0.0029 | 0.167 ± 0.0052 | 1.64 ± 0.044 |
| D64I | 0.256 ± 0.028 | 0.837 ± 0.025 | 3.78 ± 0.41 |
| D64S | 0.0944 ± 0.0013 | 0.22 ± 0.013 | 3.02 ± 0.097 |
| D64T | 0.217 ± 0.0054 | 0.331 ± 0.051 | 2.74 ± 0.3 |
| D64C | 0.0848 ± 0.032 | 0.335 ± 0.072 | 2.45 ± 0.3 |
| D64F | 0.267 ± 0.014 | 1.01 ± 0.054 | 3.86 ± 0.28 |
| M60L K104V L107C G128I | 1.223 ± 0.006 | 3.59 ± 0.22 | 3.12 ± 0.6 |
| M60L K104V L107C G128M | 2.296 ± 0.0044 | 4.53 ± 0.18 | 3.641 ± 0.033 |
| D59A | 0.0693 ± 0.0036 | 0.0755 ± 0.001 | 0.291 ± 0.014 |
| M60L K104V G128I | 0.312 ± 0.017 | 1.27 ± 0.04 | 3.28 ± 0.16 |
| M60L K104V G128M | 0.69 ± 0.028 | 1.46 ± 0.085 | 2.91 ± 0.039 |
| D64K L107C G128M | 6.27 ± 0.28 | 5.91 ± 0.52 | 4.866 ± 0.045 |
| D64K L107C G128I | 4.71 ± 0.58 | 4.78 ± 0.6 | 4.48 ± 0.43 |

| Variant | sfGFP reporter fluorescence [1] | sfGFP reporter fluorescence ([2]; ligand: 1 µM Pb) | sfGFP reporter fluorescence ([2]; ligand: 30 µM Zn) |
| --- | --- | --- | --- |
| L68K | 0.0608 ± 0.0021 | 0.0566 ± 0.0013 | 0.0638 ± 0.0036 |
| L68N | 0.0588 ± 0.0013 | 0.05992 ± 0.00026 | 0.0599 ± 0.0013 |
| L68E | 0.0623 ± 0.00052 | 0.05974 ± 0.00052 | 0.0652 ± 0.0015 |
| L68Q | 0.0603 ± 0.00078 | 0.05736 ± 0.00026 | 0.0629 ± 0.0018 |
| L68A | 0.0623 ± 0.001 | 0.0619 ± 0.0047 | 0.156 ± 0.0049 |
| L68D | 0.0619 ± 0.001 | 0.061 ± 0.0013 | 0.0636 ± 0.0023 |
| L68M | 0.0902 ± 0.0021 | 0.2142 ± 0.0013 | 1.42 ± 0.044 |
| L68F | 0.07935 ± 0.00078 | 0.166 ± 0.0029 | 1.42 ± 0.11 |
| L68P | 0.0632 ± 0.0029 | 0.0583 ± 0.0015 | 0.0652 ± 0.0026 |
| L68H | 0.0623 ± 0.0026 | 0.0577 ± 0.0013 | 0.0795 ± 0.0015 |
| L68I | 0.0599 ± 0.0013 | 0.059 ± 0.0021 | 0.214 ± 0.047 |
| L68S | 0.061 ± 0.0023 | 0.05882 ± 0.00026 | 0.0636 ± 0.0039 |
| L68G | 0.06395 ± 0.00026 | 0.05827 ± 0.00052 | 0.0656 ± 0.00052 |
| L68C | 0.0678 ± 0.0031 | 0.0874 ± 0.0044 | 0.504 ± 0.017 |
| L68R | 0.06175 ± 0.00026 | 0.0579 ± 0.001 | 0.0596 ± 0.0029 |
| M60L L107C | 1.01 ± 0.029 | 1.43 ± 0.057 | 3.93 ± 0.055 |
| P61N D64K L107C G128M | 4.78 ± 0.1 | 5.3 ± 0.14 | 4.84 ± 0.18 |
| P61N D64K L107C G128I | 3.28 ± 0.15 | 4.88 ± 0.7 | 4.54 ± 0.044 |
| D64K G128M | 0.806 ± 0.04 | 1.86 ± 0.25 | 4.98 ± 0.34 |
| D64K G128I | 0.371 ± 0.021 | 1.32 ± 0.067 | 4.45 ± 0.14 |
| M60L G128M | 0.939 ± 0.012 | 2.69 ± 0.78 | 4.69 ± 0.071 |
| M60L G128I | 0.336 ± 0.012 | 1.4 ± 0.016 | 3.625 ± 0.027 |

| Variant | sfGFP reporter fluorescence [1] | sfGFP reporter fluorescence ([2]; ligand: 1 µM Pb) | sfGFP reporter fluorescence ([2]; ligand: 30 µM Zn) |
| --- | --- | --- | --- |
| P61N K104V | 0.121 ± 0.016 | 0.385 ± 0.007 | 1.77 ± 0.47 |
| M60L L107C G128I | 2.19 ± 0.17 | 3.42 ± 0.14 | 2.98 ± 0.17 |
| M60L L107C G128M | 4.479 ± 0.028 | 4.98 ± 0.62 | 5.22 ± 0.29 |
| P61N L107C | 1.34 ± 0.084 | 2.4 ± 0.077 | 3.92 ± 0.019 |
| P61N D64K K104V | 0.26 ± 0.0026 | 0.752 ± 0.037 | 2.41 ± 0.1 |
| M60L P61N K104V G128M | 0.547 ± 0.013 | 1.69 ± 0.41 | 3.84 ± 0.1 |
| M60L P61N K104V G128I | 0.148 ± 0.0083 | 0.448 ± 0.098 | 1.76 ± 0.23 |
| M60L K104V L107C | 1.11 ± 0.099 | 3.04 ± 0.88 | 2.76 ± 0.63 |
| D64K K104V L107C G128I | 2.19 ± 0.12 | 4.16 ± 0.23 | 3.35 ± 0.64 |
| D64K K104V L107C G128M | 3.13 ± 0.25 | 3.98 ± 0.082 | 3.57 ± 0.84 |
| L62P | 0.06194 ± 0.00052 | 0.06487 ± 0.00052 | 0.0993 ± 0.0042 |
| L62K | 0.0632 ± 0.0013 | 0.0619 ± 0.001 | 0.0815 ± 0.0018 |
| L62H | 0.06285 ± 0.00026 | 0.0638 ± 0.001 | 0.0918 ± 0.0049 |
| L62Q | 0.0597 ± 0.001 | 0.0608 ± 0.001 | 0.0819 ± 0.0018 |
| L62M | 0.066 ± 0.001 | 0.0962 ± 0.0049 | 0.533 ± 0.033 |
| L62A | 0.06469 ± 0.00026 | 0.0634 ± 0.0031 | 0.0839 ± 0.0062 |
| L62C | 0.061 ± 0.0018 | 0.0651 ± 0.0013 | 0.0995 ± 0.00078 |
| L62S | 0.0619 ± 0.0015 | 0.063 ± 0.001 | 0.0744 ± 0.001 |
| L62D | 0.06066 ± 0.00026 | 0.0629 ± 0.0018 | 0.0649 ± 0.001 |
| L62E | 0.06066 ± 0.00026 | 0.0625 ± 0.0023 | 0.0658 ± 0.0013 |
| L62N | 0.061 ± 0.00078 | 0.0632 ± 0.00078 | 0.08008 ± 0.00026 |
| L62T | 0.0607 ± 0.0034 | 0.0674 ± 0.0031 | 0.133 ± 0.0031 |

Reference: the supplement of paper PMC12783771
